Experimental data: article PMC5698488

Molecular target: BG505 Olio6 trimer (HIV-1 (isolate BG505))
Test: SEC-MALS

BG505 Olio6 trimer (complex)
stoichiometry N: 3
